# From patent US20160168210A1, “DERIVATIVES OF COLLAGEN-BINDING HAIRPIN PEPTIDES” (NATIONAL RESEARCH COUNCIL OF CANADA, priority 2012, published 2016)
# “Also recorded” adds a separate entry of the source. Where no end group is shown, it is not given here.
# Tests used:
# [1] = In vivo biodistribution by fluorescence imaging in nude mice; design: species or system mouse; conditions: for fluorescence biodistribution: ~0.25 mg/kg
# Experimental: (§1) Immune-compromised nude mice (20-30 g) and normal Sprague-Dawley rats (250-310 g; Charles River Laboratories, St-Constant, QC, Canada) were acclimated for at least 3 days prior to the start of the study. Animals were housed in microisolator cages and were kept on a 12-hr light/dark cycle with constant temperature and humidity. Food and water were provided ad libitum. Stock solutions of various agents and peptides of this invention were diluted in saline (0.9% sodium chloride) prior to use. Saline formulations of FL4247 were prepared in such a way that similar dose levels were achieved based on the body weight of the experimental animals used for the study (i.e. in mg/kg).
# (§2) Of the different methods available, imaging with fluorescently-labeled test compounds is particularly useful for assessing the in vivo biodistribution in real time with live animals. Therefore, the biodistribution of FL4247 was followed over time in two nude mice each for two routes of administration: 1) intravenous (I.V.); and 2) intraperitoneal (I.P.). Another imaging experiment was carried out using a Sprague-Darley rat (Charles River Laboratories, St-Constant, QC, Canada) through a tail-vein (I.V.) administration of an FL4247 solution.
# The I.V. injection route depicted similar results in both studies even though the imaging sequence parameters were different (study 1=1 image/2 minutes over 30 minutes; study 2=1 image/5 minutes over 60 minutes).
# Similar results were obtained in two studies involving the I.P. route of injection. Different imaging parameters were again used (study 1=1 image/2 minutes over 60 minutes; study 2=1 image/5 minutes over 90 minutes). The I.P. injection of FL4247 led to the accumulation of the compound at the level of the head within 5 minutes. […] The distribution of FL4247 over the entire body is complete within 30 minutes accompanied by a slow accumulation of fluorescence in the bladder region.
# [2] = In vivo biodistribution by fluorescence imaging in a normal Sprague-Dawley rat
# Experimental: as §1, §2
# The biodistribution was also assessed using one rat in which FL4247 was injected intravenously (I.V.) through the tail vein. To illustrate the capacity for image contrast, only 10% (one tenth or 1/10) of FL4247 was used with the normal rat (FIG. 9C) as compared to the dosage of FL4247 used for imaging vascular injury in venous thrombosis (see FIG. 10). […] Then the fluorescence became more intense in both kidneys for the next 25 minutes and finally the fluorescence appeared in the bladder for the remainder of the experiment time. Although the head was not imaged during this experiment, ex vivo imaging was carried out at the end of the live-animal protocol with the dissected brain, heart, liver and both kidneys. A small amount of fluorescence was detected in the liver and a much stronger signal (about 10 times) was present in both kidneys.
# [3] = system: fibrotic tissues of the lung; test: Fluorescence imaging in bleomycin-induced mouse model of pulmonary fibrosis; format: in vivo
# Text: Tissue localization of the representative compound FL4247 containing a collagen-binding hairpin peptide was further examined using a bleomycin-induced mouse model of pulmonary fibrosis. […] This is accompanied by fluorescence localization into generally inflamed tissues in the oral cavities of these mice, which are induced through either mechanical or contact damages. It can therefore be concluded that FL4247 has an affinity for inflamed/fibrosing tissues in vivo, very likely due to specific binding of the collagen-responsive hairpin moiety to newly-secreted collagen enriched in these tissue environments.
# Specifically, pulmonary instillation of bleomysin was used to initiate pulmonary fibrosis in a mouse model using immune-compromised nude mice. The objective was to determine if the fluorescent FL4247 compound would localize in fibrotic tissues of the lung induced by bleomycin. […] The imaging data thus obtained confirm that: 1) the fluorescence detected in vivo in the thorax region was indeed coming from the lung and from the heart; and 2) since no fluorescence was detected in the lung and heart of the control mouse, the signal detected in the fibrotic mouse injected with FL4247 is very likely a result of different lung tissues induced by fibrosis. […]
# [4] = system: abdominal vena cava injured by FeCl3
# Text: The application of ferric chloride on venous and arterial vessels was therefore the method used to produce the inflamed vasculature in the animal model. The carotid artery (arterial model) and the abdominal vena cava (venous model) were the chosen vessels for the imaging experiments with injured blood vessels undergong thrombosis.
# The FeCl3 rat venous model of thrombosis was generated as described (Wang 2005) with some modifications. Briefly, rats were anesthetized with a 2.5% isoflurane/oxygen mixture and placed on a heat source (35-37° C.). The vena cava was then exposed via a midline incision and the region between the renal and iliolumbar veins was isolated. One minute after drug administration, a piece of filter paper (Gel Blot Paper, GB003, Whatman, Piscataway, N.J., USA; 7 mm diameter) saturated with 10% FeCl3 (EMD Chemicals Inc., Gibbstown, N.J., USA) was placed on the exposed surface of the vena cava and incubated for 3.5 minutes. During the application of FeCl3, the abdominal region was covered with aluminum foil. At the end of the incubation period, the filter paper was removed and the exposed viscera covered with a saline-soaked gauze.
# In these imaging experiments, there were also a 30-minute waiting time after introduction of FeCl3 to the exposed vena cava to ensure the development of substantial vascular injury and the deposition of a thrombus.
# [5] = target: rat-tail collagen type I (Rattus norvegicus, UniProt P02454+P02466); test: Retention of fluorescent peptide by collagen hydrogels, fluorescence imaging; format: binding; design: used together with rat-tail collagen (type I); from tissue; host or cells: rat tail; conditions: pre-formed or pre-mixed collagen hydrogel disks
# Text: Peptide P4247 conjugated to a fluorescent probe, i.e. FL4247 (Table 5), was therefore used together with rat-tail collagen (type I) to assess the binding capacity of CBLH peptides to collagen and to illustrate the potential applications of collagen hydrogels formulated with compounds of this invention. The fluorescent probe, HiLyte Fluor750 (AnaSpec, California) was selected with a maximum absorption at an optical wavelength of 750 nm and with a maximum fluorescence emission at 800 nm. Therefore, the intensity of fluorescence emissions would also be optimal for in vivo imaging of tissue locations with a differential enrichment of the injected fluorescent compound (see Examples 8-10). […] For this first experiment, FL4247 in a hydrogel solution were loaded onto the pre-formed collagen hydrogels and molecular diffusion off FL4247 was followed by fluorescence imaging (FIG. 8A, left image). […] Such FL4247-collagen hydrogel preparations (FIG. 8A, right) were then submerged in a large volume of buffer solutions (e.g. the PBS) and the degree of FL4247 retention by the hydrogels were followed by fluorescence imaging (FIG. 8B). […] However, the observed fluorescence intensity was still restricted close to the center of the hydrogel disks 30 minutes after the FL4247 solution was applied (FIG. 8A, left). […]
# Chain of rat-tail collagen type I (P02466 86-1125): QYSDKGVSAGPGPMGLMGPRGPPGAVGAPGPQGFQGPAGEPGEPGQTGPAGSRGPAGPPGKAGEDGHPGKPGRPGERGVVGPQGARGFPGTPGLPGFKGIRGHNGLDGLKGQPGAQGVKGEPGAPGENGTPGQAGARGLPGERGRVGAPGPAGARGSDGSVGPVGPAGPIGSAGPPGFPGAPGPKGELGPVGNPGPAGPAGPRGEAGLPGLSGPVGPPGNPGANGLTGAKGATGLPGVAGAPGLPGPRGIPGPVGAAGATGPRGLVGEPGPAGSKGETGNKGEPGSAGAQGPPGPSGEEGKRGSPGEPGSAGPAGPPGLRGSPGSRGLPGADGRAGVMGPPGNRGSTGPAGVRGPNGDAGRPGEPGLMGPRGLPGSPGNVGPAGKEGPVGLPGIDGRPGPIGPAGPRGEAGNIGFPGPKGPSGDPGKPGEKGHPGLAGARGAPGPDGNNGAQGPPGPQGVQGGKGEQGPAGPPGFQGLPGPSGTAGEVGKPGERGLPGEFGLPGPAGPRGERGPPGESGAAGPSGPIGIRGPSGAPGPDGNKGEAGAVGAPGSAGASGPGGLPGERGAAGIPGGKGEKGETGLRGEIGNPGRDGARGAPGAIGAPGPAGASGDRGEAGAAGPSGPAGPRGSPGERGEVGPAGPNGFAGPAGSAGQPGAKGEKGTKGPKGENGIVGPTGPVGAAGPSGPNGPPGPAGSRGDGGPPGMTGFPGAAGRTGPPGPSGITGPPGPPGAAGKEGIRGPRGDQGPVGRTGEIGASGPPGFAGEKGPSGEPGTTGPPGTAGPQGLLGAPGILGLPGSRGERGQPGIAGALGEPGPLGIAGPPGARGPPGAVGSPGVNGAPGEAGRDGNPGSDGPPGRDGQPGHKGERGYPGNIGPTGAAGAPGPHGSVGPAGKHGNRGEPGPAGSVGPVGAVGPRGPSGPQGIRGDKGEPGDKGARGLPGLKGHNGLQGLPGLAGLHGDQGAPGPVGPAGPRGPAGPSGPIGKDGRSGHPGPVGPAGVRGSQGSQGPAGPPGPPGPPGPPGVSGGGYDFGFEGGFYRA
# Chain of rat-tail collagen type I (P02454 152-1207): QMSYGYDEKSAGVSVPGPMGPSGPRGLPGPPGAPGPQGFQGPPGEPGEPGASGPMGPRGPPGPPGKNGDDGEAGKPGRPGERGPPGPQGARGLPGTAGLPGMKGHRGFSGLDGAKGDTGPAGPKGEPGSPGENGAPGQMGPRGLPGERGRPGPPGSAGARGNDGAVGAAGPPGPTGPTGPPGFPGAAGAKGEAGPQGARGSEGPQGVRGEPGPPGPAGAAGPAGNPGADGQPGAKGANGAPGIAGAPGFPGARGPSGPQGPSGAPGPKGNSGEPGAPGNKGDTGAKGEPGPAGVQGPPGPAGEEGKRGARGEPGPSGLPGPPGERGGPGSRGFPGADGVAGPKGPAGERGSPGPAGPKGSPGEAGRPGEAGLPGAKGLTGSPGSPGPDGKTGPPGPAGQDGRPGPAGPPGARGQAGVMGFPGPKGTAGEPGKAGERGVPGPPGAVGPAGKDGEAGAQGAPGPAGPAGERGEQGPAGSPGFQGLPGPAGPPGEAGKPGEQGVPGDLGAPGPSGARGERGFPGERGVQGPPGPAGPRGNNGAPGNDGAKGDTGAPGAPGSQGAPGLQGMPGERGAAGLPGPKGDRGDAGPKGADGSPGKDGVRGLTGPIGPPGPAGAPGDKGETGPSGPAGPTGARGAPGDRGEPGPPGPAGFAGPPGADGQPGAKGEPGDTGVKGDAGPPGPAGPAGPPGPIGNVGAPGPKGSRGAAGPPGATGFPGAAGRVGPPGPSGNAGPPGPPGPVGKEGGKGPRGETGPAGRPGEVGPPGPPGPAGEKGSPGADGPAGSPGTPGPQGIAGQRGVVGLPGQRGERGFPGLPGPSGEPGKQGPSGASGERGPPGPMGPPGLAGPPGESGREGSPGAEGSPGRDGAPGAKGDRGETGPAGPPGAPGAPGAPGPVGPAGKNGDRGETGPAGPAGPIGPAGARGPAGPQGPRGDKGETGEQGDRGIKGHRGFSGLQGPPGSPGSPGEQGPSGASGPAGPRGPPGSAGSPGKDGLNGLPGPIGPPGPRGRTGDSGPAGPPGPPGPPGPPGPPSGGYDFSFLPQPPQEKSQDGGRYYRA
substance,measurement,setting,value
"IRFTDGEWTWDDATKTWTWTEGGC-Fluor750 (not fully specified (C-terminus); printed as IRFTDGEWTWDDATKTWTWTEGGC-Fluor750; also: HiLyte Fluor750 conjugate) [FL4247, peptide P4247 conjugated to fluorescent probe HiLyte Fluor750]",time to accumulation at the level of the head,[1]; I.P.,≤ 5 min
same,time to complete distribution over the entire body,[1]; I.P.,≤ 30 min
same,fluorescence biodistribution,[1]; I.P.,far inferior over time compared to the I.V. injection; also recorded: no specific local accumulation of FL4247 was noted
same,fluorescence biodistribution,[1]; I.V.,accumulated rapidly in the head region followed by a slow decrease of fluorescent intensity over time; also recorded: accumulated in the bladder; also recorded: no other organs appeared to accumulate or retain FL4247
same,fluorescence biodistribution (live and ex vivo imaging),"[2]; I.V. tail vein, 0.025 mg/kg","differential accumulation in the head region, in the kidneys and in the bladder; also recorded: Nothing was detected in the brain and heart organs"
same,ex vivo signal in both kidneys relative to liver,"[2]; I.V., end of live-animal protocol",about 10 times
same,decrease of liver fluorescence,"[2]; I.V., within 5 minutes",10 times
same,mice with I.V. injection showing marked fluorescence in the lung,[3]; I.V.,two out of three mice
same,fluorescence retention in fibrotic lung,"[3]; tail vein injection, ~0.5 mg/kg",high degree of FL4247 fluorescence was retained in the area of the lung
same,fluorescence at the injured abdominal vena cava,"[4]; I.V. 30 minutes after FeCl3 application, ~0.2 mg/kg",strong fluorescence signal
same,signal in dissected thrombus weaker than along injured vasculature,"[4]; ex vivo imaging, I.V. 30 minutes after FeCl3",about 3 times
same,clearance,"[4]; rat venous thrombosis model, I.V.",rapid clearance of FL4247 via the kidneys to the bladder
same,diffusion in / retention by collagen hydrogels (fluorescence),[5],significantly retarded the diffusion of FL4247 in the gel matrix; also recorded: could resist outward diffusion into buffer solutions
